The values that follow come from patent US20220089735A1 (SUZHOU KANOVA BIOPHARMACEUTICAL, published 2022).

Experiment [1] has as its target T1, human B7S1 (NCBI Reference Sequence: NP_078902.2) expressed on a cell surface (human, UniProt Q7Z7D3 25-282).
T1 construct: whole, on cells; the assay field says which cells were used; also called B7S1 overexpressed on cell surface; B7S1 transfected BaF3 cell line
T1 sequence (looked up): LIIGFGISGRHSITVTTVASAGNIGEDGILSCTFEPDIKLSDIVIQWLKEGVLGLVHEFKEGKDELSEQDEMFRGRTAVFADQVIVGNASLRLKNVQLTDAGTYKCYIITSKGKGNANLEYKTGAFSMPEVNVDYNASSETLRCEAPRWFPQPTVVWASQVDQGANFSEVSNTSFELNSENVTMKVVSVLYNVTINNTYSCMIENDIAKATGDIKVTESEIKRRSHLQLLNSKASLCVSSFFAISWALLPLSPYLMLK
The experiment is described as follows: flow cytometry (mean fluorescence intensity) on BaF3 cells expressing human B7S1, detection with Alexa Fluor 594 goat anti-human IgG. The protocol: To evaluate anti-B7S1 antibody binding affinity on cell surface over expressing B7S1, human B7S1 (NCBI Reference Sequence: NP_078902.2) was constructed on BaF3 cell line. The cells were washed with PBS and aliquot to 96-well U-bottom plate with a cell density of 5×10\hat{ }5 cells/well. For live/dead stain, LIVE/DEAD® Fixable Aqua Dead Cell Stain Kit (Life technologies, L34957) was applied (1:1000 in PBS, 100 ul/well) to cells, and incubated at 4° C. for 10 min FACS buffer (2% FBS in PBS, 100 ul/well) was added to each well to terminate staining. Centrifuge (1200 rpm, 5 min) to discard supernatant and wash with FACS buffer once. Humanized anti-B7S1 antibodies were diluted in FACS buffer to according concentrations and added to each well (100 ul/well). Cells were incubated at 4° C. for 30 min, and then, washed twice with FACS buffer. […] Cells were incubated at 4° C. for 30 min, and then, washed twice with FACS buffer. […] For example, the binding EC₅₀ of the tested mAbs is in the sub nM range.
In general terms: Flow cytometry measures light scatter and fluorescence of single cells or particles in a stream.

The target in experiment [2] is T2, human B7S1-his (Sinobiological, cat#10738-H08H-100) (human, UniProt Q7Z7D3 25-259).
T2 construct: extracellular domain; Bought protein; also called human B7S1 extracellular domain; B7-H4; not shown: His tag
T2 sequence (looked up): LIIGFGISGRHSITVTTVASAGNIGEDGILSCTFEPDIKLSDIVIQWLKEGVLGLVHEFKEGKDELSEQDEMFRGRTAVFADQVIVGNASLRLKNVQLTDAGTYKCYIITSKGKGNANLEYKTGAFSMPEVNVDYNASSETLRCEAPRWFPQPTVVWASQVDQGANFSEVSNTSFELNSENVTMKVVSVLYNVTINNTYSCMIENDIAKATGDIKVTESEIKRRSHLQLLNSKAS
The experiment is described as follows: SPR, Biacore 8K, antibody captured by Fc, B7S1 as analyte. The procedure: FIG. 1. Experimental results of Surface Plasmon Resonance (SPR) binding analysis using Biacore 8K. The data of dissociation (kd) and association (ka) rate constants were obtained using Biacore 8K evaluation software. The equilibrium dissociation constants (KD) were calculated from the ratio of kd over ka.
In addition, the affinity of the above mAbs was further analyzed by Surface Plasmon Resonance (SPR) binding analysis using Biacore 8K. SPR is the resonant oscillation of conduction electrons at the interface between negative and positive permittivity material stimulated by incident light. Antibodies were immobilized on the sensor chip through Fc capture method. Human B7S1 (Sinobiological, cat#10738-H08H-100) was used as the analyte. The data of dissociation (kd) and association (ka) rate constants were obtained using Biacore 8K evaluation software. The equilibrium dissociation constants (KD) were calculated from the ratio of kd over ka.
In general terms: Surface plasmon resonance follows binding to a sensor surface in real time, without labels.

Experiment [3] concerns the target T2, human B7S1-his (Sinobiological, …). Kind of experiment: ELISA, antigen coated on plate. The protocol:
(§1) In order to test humanized anti-B7S1 antibody binding affinity, an ELISA analysis was carried out. 2 μg/ml of human B7S1-his (Sinobiological, cat#10738-H08H-100), mouse B7S1-his (R&D system, cat#4206-B7-100), and cynomolgus B7S1 extracellular domain (Leu25-Ser259, NCBI Reference Sequence: XP_005542249.1) were coated on MaxiSorp 96-well plates (NUNC, 449824) in 0.5M carbonate/bicarbonate buffer, pH9.6, incubated at 4° C. over night. Coated plates were blocked with skimmed milk (5%, in PBST) for 1h. Humanized anti-B7S1 antibodies were diluted and added to the plates, and incubated for 2h at room temperature. Washed three times with PBST (lx PBS with 0.05% tween-20) to eliminate un-bounded antibodies. Goat anti-Human IgG-HRP (Easybio, BE0122, 1:5000 in PBS) was added and incubated for 1h. Washed three times with PBST (lx PBS with 0.05% tween-20) to eliminate un-bounded antibodies. TMB (eBioscience, 00-4201-56) was added (50 ul/well) for color rendering and stopped by 2N H₂SO₄ (50 ul/well). Optical density was measured at 450 nm and 570 nm.

In experiment [4] the target is T3, mouse B7S1-his (R&D system, cat#4206-B7-100) (mouse, UniProt Q7TSP5 29-256).
T3 construct: Bought protein; not shown: His tag
T3 sequence (looked up): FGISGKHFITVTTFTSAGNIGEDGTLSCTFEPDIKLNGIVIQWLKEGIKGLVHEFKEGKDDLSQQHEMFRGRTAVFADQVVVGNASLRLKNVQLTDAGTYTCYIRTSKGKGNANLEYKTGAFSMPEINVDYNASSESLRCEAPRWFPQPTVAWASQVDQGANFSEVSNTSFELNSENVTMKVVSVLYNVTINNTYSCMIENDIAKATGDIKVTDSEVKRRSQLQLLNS
Kind of experiment: ELISA, antigen coated on plate. The protocol: as §1
(In general: An ELISA detects its analyte on a solid surface through an enzyme-linked reagent.)

Experiment [5] addresses T4, cynomolgus B7S1 extracellular domain (Leu25-Ser259, NCBI Reference Sequence: XP_005542249.1) (cynomolgus monkey).
T4 construct: range 25-259; No tag or fusion partner is stated; also called cynomolgus monkey B7S1
Kind of experiment: ELISA, antigen coated on plate. The protocol:
as §1

Experiment [6] deals with T1, human B7S1 (NCBI Reference Sequence: …). Kind of experiment: flow cytometry, LPS-stimulated human PBMCs. The procedure:
(§2) Peripheral blood mononuclear cells (PBMCs) contain monocytes which under stimulation would up-regulate B7S1 expression on cell surface. This example is to evaluate humanized anti-B7S1 antibody binding affinity on monocytes. Human buffy coat was diluted with PBS to according volume as twice as Ficoll (GE, 17-1440-02). The diluted buffy coat was layered gently on top of Ficoll and centrifuged at 2500 rpm for 40 min at 20° C. without brake. Carefully draw off PBMCs layer in between Ficoll and its transparent supernatant. PBS was added to 5 volumes of PBMCs and centrifuged at 1200 rpm for 10 min at 20° C. Discard supernatant and wash with PBS again. To eliminate platelets, centrifuge at 900 rpm for 8 min at 20° C. PBMCs were resuspended with culture medium (RPMI-1640 with 10% FBS and 1% PS), counted and aliquot to 96-well plate (5×10\hat{ }5 cells/well) with LPS added (100 ng/ml). After 24h incubation, cells were washed with PBS twice. For live/dead stain, LIVE/DEAD® Fixable Aqua Dead Cell Stain Kit (Life technologies, L34957) was applied (1:1000 in PBS, 100 ul/well) to cells, and incubated at 4° C. for 10 min FACS buffer (2% FBS in PBS, 100 ul/well) was added to each well to terminate staining. Centrifuge (1200 rpm, 5 min) to discard supernatant and wash with FACS buffer once. Humanized anti-B7S1 antibodies were diluted in FACS buffer to according concentrations and added to each well (100 ul/well). Cells were incubated at 4° C. for 30 min, and then, washed twice with FACS buffer. […] Cells were incubated at 4° C. for 30 min, and then, washed twice with FACS buffer. Cells were tested on flow cytometry. […] The mAbs meet the requirements for binding profile of antibody drugs.

For experiment [7] the target is unchanged. Kind of experiment: flow cytometry on LPS-stimulated human PBMCs (percentage of live PBMC stained), detection with Alexa Fluor 594 goat anti-human IgG. The protocol:
as §2

B1: humanized anti-B7S1 antibody VH1-5/VL4-5 (antibody, V domains shown)
VH: QVQLVQSGAEVKKPGASVKVSCKASGYTFTSYWMHWVKQAPGQGLEWIAAIYPGNSDTDYNQKFKGKAKITAVTSTSTAYMELSSLRSEDTAVYYCTTTVAHYFDYWGQGTMVTVSS
VL: EIVMTQSPATLSLSPGERATLTCKASQDVSFAVAWYQQKPGQAPKLLISSASYRYTGVPDRFSGSGSGTDFTLTISSLEPEDFAVYYCQQHYNTPLTFGGGTKVEIK
notes: Tested as a whole antibody with a human Fc (detected with anti-human IgG, Fc capture in SPR)
As to B1, the EC50 (usually the concentration that produces a half-maximal response) is 3.8 nM in experiment [1]; 0.52 nM in experiment [3]; 1.09 nM in experiment [4]; 8.09 nM in experiment [5]; less than 3 nM in experiment [6]; 2.6 nM in experiment [7]. Besides, the Kd (commonly the free concentration of one partner at which half of the binding sites on the other are occupied at equilibrium, for simple one-to-one binding) in experiment [2] was 3.24 nM. Also, in experiment [2], the dissociation rate constant (koff) (usually a measure of how fast the partners let go of each other) came to 0.000265 s⁻¹. In addition, the on-rate constant (kon) (commonly the rate constant with which the complex forms) in experiment [2] is 81700 M⁻¹ s⁻¹.

B2: humanized anti-B7S1 antibody VH1-4/VL4-5 (antibody, V domains shown)
VH: QVQLVQSGAEVKKPGASVKVSCKASGYTFTSYWMHWVRQAPGQGLEWIAAIYPGNSDTDYNQKFKGKAKITAVTSTSTVYMELSSLRSEDTAVYYCTTTVAHYFDYWGQGTMVTVSS
VL: EIVMTQSPATLSLSPGERATLTCKASQDVSFAVAWYQQKPGQAPKLLISSASYRYTGVPDRFSGSGSGTDFTLTISSLEPEDFAVYYCQQHYNTPLTFGGGTKVEIK
notes: as for B1
For B2, the EC50 in experiment [1] was 4.2 nM; in experiment [3], 0.25 nM; in experiment [4], 1.59 nM; in experiment [5], 7.82 nM; in experiment [6], less than 3 nM; in experiment [7], 2.4 nM. In experiment [2], this molecule returned an equilibrium dissociation constant (Kd) of 4.08 nM. In experiment [2], this molecule displayed a dissociation rate constant (koff) of 0.000436 s⁻¹. The same molecule came in with a kon in experiment [2] of 107000 M⁻¹ s⁻¹.

B3: humanized anti-B7S1 antibody VH1-5/VL4-4 (antibody, V domains shown)
VH: QVQLVQSGAEVKKPGASVKVSCKASGYTFTSYWMHWVKQAPGQGLEWIAAIYPGNSDTDYNQKFKGKAKITAVTSTSTAYMELSSLRSEDTAVYYCTTTVAHYFDYWGQGTMVTVSS
VL: EIVLTQSPATLSLSPGERATLSCKASQDVSFAVAWYQQKPGQAPRLLISSASYRYTGVPDRFSGSGSGTDFTLTISSLEPEDFAVYYCQQHYNTPLTFGGGTKVEIK
notes: as for B1
For the molecule B3, the EC50 in experiment [1] is 3.1 nM; in experiment [3], 0.4 nM; in experiment [4] it was 0.88 nM; in experiment [5], 3.26 nM; in experiment [6], less than 3 nM; in experiment [7], 3 nM. For the same molecule, in experiment [2], binding was put at a Kd of 1.86 nM. This molecule also gave a koff in experiment [2] of 0.000187 s⁻¹. This molecule came in with a kon in experiment [2] of 101000 M⁻¹ s⁻¹.
